# Biological target: mouse RANK (RANKL receptor on RAW264 cells) (mouse) (UniProt O35305)
# Assay: cell-based or functional assay
# Sequence of UniProt O35305 (O35305 31-625): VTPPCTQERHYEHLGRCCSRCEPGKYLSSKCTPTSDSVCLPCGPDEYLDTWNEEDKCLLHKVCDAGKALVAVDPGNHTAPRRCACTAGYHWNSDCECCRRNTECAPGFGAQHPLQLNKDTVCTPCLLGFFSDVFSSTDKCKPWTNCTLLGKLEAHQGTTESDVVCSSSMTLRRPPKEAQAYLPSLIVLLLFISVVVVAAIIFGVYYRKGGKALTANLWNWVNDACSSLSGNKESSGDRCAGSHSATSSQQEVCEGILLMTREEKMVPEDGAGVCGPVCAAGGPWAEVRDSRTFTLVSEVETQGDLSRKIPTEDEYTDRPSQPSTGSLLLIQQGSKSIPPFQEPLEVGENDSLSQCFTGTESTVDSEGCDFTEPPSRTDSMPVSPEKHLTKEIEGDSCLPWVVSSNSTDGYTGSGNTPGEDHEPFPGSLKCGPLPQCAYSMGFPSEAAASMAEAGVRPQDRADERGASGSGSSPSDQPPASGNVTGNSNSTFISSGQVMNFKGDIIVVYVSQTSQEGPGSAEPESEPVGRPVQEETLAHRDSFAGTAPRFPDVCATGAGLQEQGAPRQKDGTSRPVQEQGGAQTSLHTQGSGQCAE
substance,measurement,value
GST-RANKL (fused protein of glutathione-S-transferase with human soluble RANKL residues 140-317) (ligand),osteoclast induction activity in RAW264 cells (at concentrations of 10 nM and 5 nM) (fold over mouse soluble RANKL),> 2

# From patent publication US20100105612A1
